US20090081786A1, “Peptide sequences for modulation of protein kinase C” (priority 2006, published 2009)

Biological target: annexin V endogenous in CHO-K1 cells (Homo sapiens (Human)) (UniProt P08758)
Test: co-immunoprecipitation from CHO cells stimulated with 10 nM PMA, FIG. 2

fold increase in the amount of complex after PMA stimulation (against before stimulation): 4 fold
Substance: δ-PKC endogenous in CHO-K1 cells (from UniProt P28867 1-674) (enzyme)
